Biological target: receptor for activated C kinase (RACK1), endogenous, HT-1080 cells (human) (UniProt P63244)
Experiment: cell-based or functional assay

Sequence of NHE6^527-588 peptide (pcDNA3-HA/NHE6^527-588) (Q92581 559-620): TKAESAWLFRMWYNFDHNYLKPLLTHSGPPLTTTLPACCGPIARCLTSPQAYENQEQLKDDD

Q: What does the source list for “NHE6^527-588 peptide (pcDNA3-HA/NHE6^527-588)”?
A: Fold (doxorubicin IC50 at 1% O2 against 21% O2): 1.6 fold; IC50 of doxorubicin, HT-1080 overexpressing the peptide, MTT viability, 1% O2: 224 nM; IC50 of doxorubicin, HT-1080 overexpressing the peptide, MTT viability, 21% O2: 137 nM; increase in drug sensitivity to Dox in cells exposed to hypoxia: 2.8 fold
